In PMC3343102, “Dynamics of Brassinosteroid Response Modulated by Negative Regulator LIC in Rice”:

T1: MBP-OsBZR1 (Oryza sativa, UniProt Q7XI96 1-298)
T1 sequence: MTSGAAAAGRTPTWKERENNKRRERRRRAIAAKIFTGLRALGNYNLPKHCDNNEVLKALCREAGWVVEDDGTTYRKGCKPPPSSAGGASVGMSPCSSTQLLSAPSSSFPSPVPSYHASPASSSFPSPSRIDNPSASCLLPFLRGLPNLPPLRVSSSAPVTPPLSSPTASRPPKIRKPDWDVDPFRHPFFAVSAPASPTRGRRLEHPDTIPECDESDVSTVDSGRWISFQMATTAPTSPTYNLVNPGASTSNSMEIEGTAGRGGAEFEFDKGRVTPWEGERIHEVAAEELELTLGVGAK


What follows are binders tested against T1, MBP-OsBZR1 (assay: EMSA; EMSA, 20 uL: 2 ug protein; 2 uL 10x buffer (100 mM Tris, 500 mM KCl, 10 mM DTT, pH 7.5), 1 uL each of 50% glycerol, 1% NP-40, 1 M KCl, 100 mM MgCl2, 200 mM EDTA, 1 ug/uL poly(dI-dC); i.e. about 10 mM Tris, 100 mM KCl, 5 mM MgCl2, 10 mM EDTA; 25 C, 20 min; 10% native PAGE). Conditions: protein: recombinant; tags: MBP (N-terminal fusion, pETMALc-H); chain copies: 2; label: biotin 3' end; blunt.

Binder | binding result
LIC promoter P1 (dsDNA) DNA 1: CGACGTCGTGCGGCCGCG DNA 2: CGCGGCCGCACGACGTCG | binds
LIC promoter P2 (dsDNA) DNA 1: CGGGCGCGTGTGTGGCGG DNA 2: CCGCCACACACGCGCCCG | no binding
MP1 (P1 with CGTGCG to CGAAAA) (dsDNA) DNA 1: CGACGTCGAAAAGCCGCG DNA 2: CGCGGCTTTTCGACGTCG | no binding
